Assay results published in patent US20060222644A1 (Biogen, published 2006).
Substitutions are numbered along the chain they refer to.

Key:
[1] = target: T1, lymphotoxin beta receptor (LT-β-R) (human, UniProt P36941 31-435); test: FACS of Protein A-purified antibodies on HT29 cells
T1 construct: whole, on cells; also called LT-β receptor
Procedure: Co-transfections of 293-EBNA cells with chBHA10 and huBHA10 Versions 1-4 were scaled up and conditioned medium was harvested. Antibody was purified on Protein A-Sepharose and purified mAbs were assayed for activity. Binding to the lymphotoxin-beta receptor was determined by FACS analysis of protein A-purified antibodies on the cell-line HT29.
HT29 cells were harvested by treatment with PBS containing 5 mM EDTA for 30 minutes followed by vigorous agitation. Cells were distributed to round-bottom 96-well plates at 2.5×10⁵ cells/well. Supernatants from 293-E cells transfected with BHA10 variants were added to the wells at the indicated dilutions in a total volume of 100 μl and incubated at 4° C. for 1 hour. The cells were washed twice with FACS buffer (PBS containing 5% FBS) and incubated with a 1:100 dilution of PE-conjugated anti-human heavy and light chain antibody (Jackson ImmunoResearch Laboratories) for 1 hour. The cells were then washed 3 times with FACS buffer and resuspended in 100 μl of PBS containing 1.0% paraformaldehyde. Samples were then transferred to the FACS facility for analysis. Protein A-purified antibodies from 293-E cells transfected with BHA10 variants were assayed at the indicated concentrations as shown in FIG. 2. The Protein A-purified CBE11 and 5C8 (anti-CD40L antibody) research standards were used as positive and negative controls, respectively. Rank ordering of binding activity was chBHA10=Version 4 huBHA10=Version 2 huBHA10>Version 3 huBHA10.

[2] = target: T1, lymphotoxin beta receptor (LT-β-R); test: FACS staining of HT-29 cells with purified antibody; reference huCBE11

T1 sequence (P36941 31-435): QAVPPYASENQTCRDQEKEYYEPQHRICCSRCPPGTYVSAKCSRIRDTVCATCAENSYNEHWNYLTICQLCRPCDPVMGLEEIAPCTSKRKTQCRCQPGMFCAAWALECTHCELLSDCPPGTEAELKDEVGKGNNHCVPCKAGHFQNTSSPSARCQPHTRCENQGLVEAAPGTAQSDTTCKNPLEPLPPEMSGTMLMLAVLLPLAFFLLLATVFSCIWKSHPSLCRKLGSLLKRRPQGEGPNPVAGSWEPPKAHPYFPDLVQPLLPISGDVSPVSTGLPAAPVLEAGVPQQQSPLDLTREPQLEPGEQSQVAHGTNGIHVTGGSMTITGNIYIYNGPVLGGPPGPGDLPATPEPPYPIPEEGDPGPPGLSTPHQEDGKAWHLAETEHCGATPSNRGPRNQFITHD

B1: Version 4 huBHA10 (antibody, human IgG1, kappa, V domains shown)
VH: QVQLVQSGAEVKKPGSSVKVSCKASGYTFTTYYLHWVRQAPGQGLEWMGWIYPGNVHAQYNEKFKGRVTITADKSTSTAYMELSSLRSEDTAVYYCARSWEGFPYWGQGTTVTVSS
VL: DIQMTQSPSSLSASVGDRVTITCKASQNVGINVAWYQQKPGKAPKSLISSASYRYSGVPSRFSGSGSGTDFTLTISSLQPEDFATYFCQQYDTYPFTFGQGTKVEIKR
notes: Heavy chain #3 and Light chain #2; human IgG1/kappa; the 293-EBNA material from pKJS046 may still carry it; also called huBHA10 Version 4; humanized BHA10 antibody version 4
B1: binds [1].

B2: Version 2 huBHA10 (antibody, human IgG1, V domains shown)
VH: B1 VH with M48I, V68A
VL: B1 VL
notes: also called huBHA10 Version 2
B2: binds [1].

B3: Version 3 huBHA10 (antibody, human IgG1, V domains shown)
VH: B1 VH
VL: DIQMTQSPSSLSASVGDRVTITCKASQNVGINVAWFQQKPGKAPKSLISSASYRYSGVPSRFSGSGSGTDFTLTISSLQPEDFATYYCQQYDTYPFTFGQGTKVEIK
notes: the 293-EBNA material may still carry it; also called huBHA10 Version 3
B3: binds [1].

B4: chimeric BHA10 (chBHA10) (antibody, human IgG1, V domains shown)
VH: QVQLQQSGPELVKPGASVRISCKASGYTFTTYYLHWVKQRPGQGLEWIGWIYPGNVHAQYNEKFKGKATLTADKSSSTAYMQLSSLTSEDSAIYFCARSWEGFPYWGQGTTVTVSS
VL: DIVMTQSQKFMSTSVGDRVSVTCKASQNVGINVAWYQQKPGQSPKSLISSASYRYSGVPDRFTGSGSGTDFTLTITNVQSEDLAEYFCQQYDTYPFTFGSGTKLEIK
notes: expressed in 293-EBNA cells; also called chBHA 0
In the case of B4, the “apparent Kd, fold relative to huCBE11” value [2] is reported as ~2 fold.
